Laboratory results published in patent publication US6426070.

Tests used:
[1] = target: recombinant human eosinophil cationic protein (rhECP), baculovirus-derived, C-terminal FLAG (human) (UniProt P12724); test: cell-based or functional assay
[2] = target: T1, placental ribonuclease inhibitor (RI), P13489
T1 chain: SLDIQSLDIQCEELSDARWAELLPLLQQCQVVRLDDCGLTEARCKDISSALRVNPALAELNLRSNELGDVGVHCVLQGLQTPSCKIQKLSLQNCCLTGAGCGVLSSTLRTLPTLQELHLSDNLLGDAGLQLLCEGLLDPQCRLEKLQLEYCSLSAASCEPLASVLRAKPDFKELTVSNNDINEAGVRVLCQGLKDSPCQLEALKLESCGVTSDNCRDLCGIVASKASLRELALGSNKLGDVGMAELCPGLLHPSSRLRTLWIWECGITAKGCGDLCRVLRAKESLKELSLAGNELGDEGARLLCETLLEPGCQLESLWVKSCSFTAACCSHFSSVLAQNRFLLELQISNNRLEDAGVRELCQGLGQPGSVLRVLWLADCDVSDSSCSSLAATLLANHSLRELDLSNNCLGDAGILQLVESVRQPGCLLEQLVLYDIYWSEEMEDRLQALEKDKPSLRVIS

placental ribonuclease inhibitor (RI) (from UniProt P13489 2-461)
infectious units/ml RSV-B after 500 nM rhECP + 400U RI (500 nM rhECP alone: 660 +/- 28) (infectious units/ml) [1]: 1690

B1: recombinant human eosinophil cationic protein (rhECP), baculovirus-derived, C-terminal FLAG (protein)
chain: RPPQFTRAQWFAIQHISLNPPRCTIAMRAINNYRWRCKNQNTFLRTTFANVVNVCGNQSIRCPHNRTLNNCHRSRFRVPLLHCDLINPGAQNISNCTYADRPGRRFYVVACDNRDPRDSPRYPVVPVHLDTTIDYKDDDDK
ribonuclease activity (pmol/min) at fixed enzyme (rhECP) and substrate (tRNA) concentrations with increasing concentrations of RI [2]: These results demonstrate that rhECP is sensitive to the inhibitory effects of RI
